According to patent US20190211097A1 (ADVENTIST HEALTH SYSTEM SUNBELT, published 2019):

Target: T1, human CD32a (FcgammaRIIa) on washed human platelets (human, UniProt P12318 34-317)
T1 sequence: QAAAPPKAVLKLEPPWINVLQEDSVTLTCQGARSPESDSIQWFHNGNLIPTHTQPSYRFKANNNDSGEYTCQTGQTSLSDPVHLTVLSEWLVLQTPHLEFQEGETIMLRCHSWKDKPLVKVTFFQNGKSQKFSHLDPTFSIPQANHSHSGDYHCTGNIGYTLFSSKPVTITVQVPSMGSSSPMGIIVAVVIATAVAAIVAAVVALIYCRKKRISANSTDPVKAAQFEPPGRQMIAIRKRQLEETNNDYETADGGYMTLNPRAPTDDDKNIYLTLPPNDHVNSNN
Assay: cell-based or functional assay

Binder	platelet aggregation by the combination of chimeric AT-10 hIgG1 E269R, chimeric IV.3 hIgG2 N297A and MDE-8 IgG1 E269R, 300 nM each	mAb concentration that inhibited 500 nM M90+CD40L IC-induced platelet aggregation
effector-deficient chimeric IV.3 human IgG2 N297A mAb (antibody) heavy: QIQLVQSGPELKKPGETVKISCKASGYTFTNYGMNWVKQAPGKGLKWMGWLNTYTGESIYPDDFKGRFAFSSETSASTAYLQINNLKNEDMATYFCARGDYGYDDPLDYWGQGTSVTVSSASTKGPSVFPLAPCSRSTSESTAALGCLVKDYFPEPVTVSWNSGALTSGVHTFPAVLQSSGLYSLSSVVTVPSSNFGTQTYTCNVDHKPSNTKVDKTVERKCCVECPPCPAPPVAGPSVFLFPPKPKDTLMISRTPEVTCVVVDVSHEDPEVQFNWYVDGVEVHNAKTKPREEQFASTFRVVSVLTVVHQDWLNGKEYKCKVSNKGLPAPIEKTISKTKGQPREPQVYTLPPSREEMTKNQVSLTCLVKGFYPSDIAVEWESNGQPENNYKTTPPMLDSDGSFFLYSKLTVDKSRWQQGNVFSCSVMHEALHNHYTQKSLSLSPGK light: DIVMTQAAPSVPVTPGESVSISCRSSKSLLHTNGNTYLHWFLQRPGQSPQLLIYRMSVLASGVPDRFSGSGSGTAFTLSISRVEAEDVGVFYCMQHLEYPLTFGAGTKLELKRTVAAPSVFIFPPSDEQLKSGTASVVCLLNNFYPREAKVQWKVDNALQSGNSQESVTEQDSKDSTYSLSSTLTLSKADYEKHKVYACEVTHQGLSSPVTKSFNRGEC	300 nM	–
effector-deficient humanized AT-10 IgG1 E269R mAb (antibody) heavy: not shown light: EIVLTQSPATLSLSPGERATLSCRASESVDNFGISFLAWYQQKPGQAPRLLIYGASNRATGIPARFSGSGSGTDFTLTISSLEPEDFAVYYCQQSKEVPWTFGQGTKVEIKRTVAAPSVFIFPPSDEQLKSGTASVVCLLNNFYPREAKVQWKVDNALQSGNSQESVTEQDSKDSTYSLSSTLTLSKADYEKHKVYACEVTHQGLSSPVTKSFNRGEC	–	15 nM
effector-deficient humanized IV.3.2 IgG1 E269R mAb (antibody) heavy: not shown light: DIVMTQTPLSLPVTPGEPASISCRSSKSLLHTNGNTYLHWYLQKPGQSPQLLIYRMSVLASGVPDRFSGSGSGTDFTLKISRVEAEDVGVYYCMQHLEYPLTFGGGTKVEIKRTVAAPSVFIFPPSDEQLKSGTASVVCLLNNFYPREAKVQWKVDNALQSGNSQESVTEQDSKDSTYSLSSTLTLSKADYEKHKVYACEVTHQGLSSPVTKSFNRGEC	–	3 nM
